Data taken from the supplement of paper PMC11316812.
± gives the standard deviation of the averaged measurements.

Assays:
[1] = tested on: hTERT-HMEC; test: percentage of EdU-negative (G0-arrested) nuclei per well, 72 h; higher = more G0 arrest; details: reference: sequence is the full UniProt precursor, the tested protein was the secreted form or ectodomain
[2] = tested on: MCF7; test: as above; details: reference: sequence is the full UniProt precursor, the tested protein was the secreted form or ectodomain
[3] = protein concentration 0.0225 µM
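Further: secreted proteins added to cultured cells, EdU pulse at the end, nuclei found by Hoechst imaging, EdU status from nuclear versus surrounding ring intensity ratio, PBS as neutral control.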

Sequence | percentage of EdU-negative [1, 3] [%] | percentage of EdU-negative ([1]; protein concentration 0.225 µM) [%] | percentage of EdU-negative [2, 3] [%] | percentage of EdU-negative ([2]; protein concentration 0.225 µM) [%] | also measured
MRLLVLLWGCLLLPGYEALEGPEEISGFEGDTVSLQCTYREELRDHRKYWCRKGGILFSRCSGTIYAEEEGQETMKGRVSIRDSRQELSLIVTLWNLTLQDAGEYWCGVEKRGPDESLLISLFVFPGPCCPPSPSPTFQPLATTRLQPKAKAQQTQPPGLTSPGLYPAATTAKQGKTGAEAPPLPGTSQYGHERTSQYTGTSPHPATSPPAGSSRPPMQLDSTSAEDTSPALSSGSSKPRVSIPMVRILAPVLVLLSLLSAAGLIAFCSHLLLWRKEAQQATETQRNEKFCLSRLTAEEKEAPSQAPEGDVISMPPLHTSEEELGFSKFVSA [K7EL06] | 5.2 ± 0.081 | 5.26 ± 0.58 | 26 ± 1.2 | 24.7 ± 3.6 | –
MRLPGVPLARPALLLLLPLLAPLLGTGAPAELRVRVRLPDGQVTEESLQADSDADSISLELRKPDGTLVSFTADFKKDVKVFRALILGELEKGQSQFQALCFVTQLQHNEIIPSEAMAKLRQKNPRAVRQAEEVRGLEHLHMDVAVNFSQGALLSPHLHNVCAEAVDAIYTRQEDVRFWLEQGVDSSVFEALPKASEQAELPRCRQVGDHGKPCVCRYGLSLAWYPCMLKYCHSRDRPTPYKCGIRSCQKSYSFDFYVPQRQLCLWDEDPYPG [Q86UD1] | 4.6 ± 0.4 | 14.9 ± 2 | 26.92 ± 0.26 | 29.75 ± 0.17 | –
MRLPLLLVFASVIPGAVLLLDTRQFLIYNEDHKRCVDAVSPSAVQTAACNQDAESQKFRWVSESQIMSVAFKLCLGVPSKTDWVAITLYACDSKSEFQKWECKNDTLLGIKGEDLFFNYGNRQEKNIMLYKGSGLWSRWKIYGTTDNLCSRGYEAMYTLLGNANGATCAFPFKFENKWYADCTSAGRSDGWLWCGTTTDYDTDKLFGYCPLKFEGSESLWNKDPLTSVSYQINSKSALTWHQARKSCQQQNAELLSITEIHEQTYLTGLTSSLTSGLWIGLNSLSFNSGWQWSDRSPFRYLNWLPGSPSAEPGKSCVSLNPGKNAKWENLECVQKLGYICKKGNTTLNSFVIPSESDVPTHCPSQWWPYAGHCYKIHRDEKKIQRDALTTCRKEGGDLTSIHTIEELDFIISQLGYEPNDELWIGLNDIKIQMYFEWSDGTPVTFTKWLRGEPSHENNRQEDCVVMKGKDGYWADRGCEWPLGYICKMKSRSQGPEIVEVEKGCRKGWKKHHFYCYMIGHTLSTFAEANQTCNNENAYLTTIEDRYEQAFLTSFVGLRPEKYFWTGLSDIQTKGTFQWTIEEEVRFTHWNSDMPGRKPGCVAMRTGIAGGLWDVLKCDEKAKFVCKHWAEGVTHPPKPTTTPEPKCPEDWGASSRTSLCFKLYAKGKHEKKTWFESRDFCRALGGDLASINNKEEQQTIWRLITASGSYHKLFWLGLTYGSPSEGFTWSDGSPVSYENWAYGEPNNYQNVEYCGELKGDPTMSWNDINCEHLNNWICQIQKGQTPKPEPTPAPQDNPPVTEDGWVIYKDYQYYFSKEKETMDNARAFCKRNFGDLVSIQSESEKKFLWKYVNRNDAQSAYFIGLLISLDKKFAWMDGSKVDYVSWATGEPNFANEDENCVTMYSNSGFWNDINCGYPNAFICQRHNSSINATTVMPTMPSVPSGCKEGWNFYSNKCFKIFGFMEEERKNWQEARKACIGFGGNLVSIQNEKEQAFLTYHMKDSTFSAWTGLNDVNSEHTFLWTDGRGVHYTNWGKGYPGGRRSSLSYEDADCVVIIGGASNEAGKWMDDTCDSKRGYICQTRSDPSLTNPPATIQTDGFVKYGKSSYSLMRQKFQWHEAETYCKLHNSLIASILDPYSNAFAWLQMETSNERVWIALNSNLTDNQYTWTDKWRVRYTNWAADEPKLKSACVYLDLDGYWKTAHCNESFYFLCKRSDEIPATEPPQLPGRCPESDHTAWIPFHGHCYYIESSYTRNWGQASLECLRMGSSLVSIESAAESSFLSYRVEPLKSKTNFWIGLFRNVEGTWLWINNSPVSFVNWNTGDPSGERNDCVALHASSGFWSNIHCSSYKGYICKRPKIIDAKPTHELLTTKADTRKMDPSKPSSNVAGVVIIVILLILTGAGLAAYFFYKKRRVHLPQEGAFENTLYFNSQSSPGTSDMKDLVGNIEQNEHSVI | – | – | – | – | percentage of EdU-negative ([1]; protein concentration 0.007 µM): 4.48 ± 0.71%; percentage of EdU-negative ([1]; protein concentration 0.07 µM): 5.07 ± 0.13%; percentage of EdU-negative ([2]; protein concentration 0.007 µM): 24.1 ± 0.79%; percentage of EdU-negative ([2]; protein concentration 0.07 µM): 24 ± 0.4%
MRLPRRAALGLLPLLLLLPPAPEAAKKPTPCHRCRGLVDKFNQGMVDTAKKNFGGGNTAWEEKTLSKYESSEIRLLEILEGLCESSDFECNQMLEAQEEHLEAWWLQLKSEYPDLFEWFCVKTLKVCCSPGTYGPDCLACQGGSQRPCSGNGHCSGDGSRQGDGSCRCHMGYQGPLCTDCMDGYFSSLRNETHSICTACDESCKTCSGLTNRDCGECEVGWVLDEGACVDVDECAAEPPPCSAAQFCKNANGSYTCEECDSSCVGCTGEGPGNCKECISGYAREHGQCADVDECSLAEKTCVRKNENCYNTPGSYVCVCPDGFEETEDACVPPAEAEATEGESPTQLPSREDL [Q6UXH1] | 4.4 ± 0.85 | 6.12 ± 0.13 | 23.9 ± 1.1 | 26 ± 1.1 | –
MRLPWELLVLQSFILCLADDSTLHGPIFIQEPSPVMFPLDSEEKKVKLNCEVKGNPKPHIRWKLNGTDVDTGMDFRYSVVEGSLLINNPNKTQDAGTYQCTATNSFGTIVSREAKLQFAYLDNFKTRTRSTVSVRRGQGMVLLCGPPPHSGELSYAWIFNEYPSYQDNRRFVSQETGNLYIAKVEKSDVGNYTCVVTNTVTNHKVLGPPTPLILRNDGVMGEYEPKIEVQFPETVPTAKGATVKLECFALGNPVPTIIWRRADGKPIARKARRHKSNGILEIPNFQQEDAGLYECVAENSRGKNVARGQLTFYAQPNWIQKINDIHVAMEENVFWECKANGRPKPTYKWLKNGEPLLTRDRIQIEQGTLNITIVNLSDAGMYQCLAENKHGVIFSNAELSVIAVGPDFSRTLLKRVTLVKVGGEVVIECKPKASPKPVYTWKKGRDILKENERITISEDGNLRIINVTKSDAGSYTCIATNHFGTASSTGNLVVKDPTRVMVPPSSMDVTVGESIVLPCQVTHDHSLDIVFTWSFNGHLIDFDRDGDHFERVGGQDSAGDLMIRNIQLKHAGKYVCMVQTSVDRLSAAADLIVRGPPGPPEAVTIDEITDTTAQLSWRPGPDNHSPITMYVIQARTPFSVGWQAVSTVPELIDGKTFTATVVGLNPWVEYEFRTVAANVIGIGEPSRPSEKRRTEEALPEVTPANVSGGGGSKSELVITWETVPEELQNGRGFGYVVAFRPYGKMIWMLTVLASADASRYVFRNESVHPFSPFEVKVGVFNNKGEGPFSPTTVVYSAEEEPTKPPASIFARSLSATDIEVFWASPLEKNRGRIQGYEVKYWRHEDKEENARKIRTVGNQTSTKITNLKGSVLYHLAVKAYNSAGTGPSSATVNVTTRKPPPSQPPGNIIWNSSDSKIILNWDQVKALDNESEVKGYKVLYRWNRQSSTSVIETNKTSVELSLPFDEDYIIEIKPFSDGGDGSSSEQIRIPKISNAYARGSGASTSNACTLSAISTIMISLTARSSL [Q8IWV2] | – | – | – | – | percentage of EdU-negative ([1]; protein concentration 0.018 µM): 5.06 ± 0.29%; percentage of EdU-negative ([1]; protein concentration 0.18 µM): 8.55 ± 0.98%; percentage of EdU-negative ([2]; protein concentration 0.018 µM): 25.6 ± 0.8%; percentage of EdU-negative ([2]; protein concentration 0.18 µM): 27 ± 1.7%
